These results are taken from patent US20080254026A1.

Holding throughout (experiment): cell-based or functional assay
Assay [1] has as its target human CD40 on the surface of B cells within PBMC from normal human subjects (human) (UniProt P25942).
In assay [2] the target is human CD40 antigen expressed on the surface of cells (human) (UniProt P25942).
The target in assay [3] is human CD40 antigen on the surface of B cells in human PBMC (human) (UniProt P25942).
In assay [4] the target is human CD40 on normal human B cells (PBMC or purified B cells) (human) (UniProt P25942).
human CD40 on normal human B cells (PBMC or purified B cells) (human), sequence (P25942 20-277): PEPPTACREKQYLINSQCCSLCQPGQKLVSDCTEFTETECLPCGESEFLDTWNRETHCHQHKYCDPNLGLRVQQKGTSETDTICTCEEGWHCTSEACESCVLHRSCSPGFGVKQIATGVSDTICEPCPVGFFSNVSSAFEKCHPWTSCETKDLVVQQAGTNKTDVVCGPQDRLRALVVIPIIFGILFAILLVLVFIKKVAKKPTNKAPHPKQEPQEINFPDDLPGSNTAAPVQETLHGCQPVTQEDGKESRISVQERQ
Assay [5] concerns the target human CD20 on the surface of lymphoma cell lines (Ramos or Daudi) (human) (UniProt P11836).
Assay [6] addresses CD20 (human) (UniProt P11836).

CD40 ligand on formaldehyde-fixed CHO transfectant cells, sequence (P29965 whole entry): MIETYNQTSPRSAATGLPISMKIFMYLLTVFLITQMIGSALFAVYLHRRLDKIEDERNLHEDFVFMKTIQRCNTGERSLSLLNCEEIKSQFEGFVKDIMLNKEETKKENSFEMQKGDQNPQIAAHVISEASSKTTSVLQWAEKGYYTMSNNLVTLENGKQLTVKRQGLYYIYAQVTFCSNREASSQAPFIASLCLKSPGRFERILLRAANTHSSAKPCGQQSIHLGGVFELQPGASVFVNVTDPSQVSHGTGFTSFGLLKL
CD40 ligand expressed on formaldehyde-fixed CHO cells, sequence (P29965 whole entry): as above
CD20 (human), sequence (P11836 whole entry): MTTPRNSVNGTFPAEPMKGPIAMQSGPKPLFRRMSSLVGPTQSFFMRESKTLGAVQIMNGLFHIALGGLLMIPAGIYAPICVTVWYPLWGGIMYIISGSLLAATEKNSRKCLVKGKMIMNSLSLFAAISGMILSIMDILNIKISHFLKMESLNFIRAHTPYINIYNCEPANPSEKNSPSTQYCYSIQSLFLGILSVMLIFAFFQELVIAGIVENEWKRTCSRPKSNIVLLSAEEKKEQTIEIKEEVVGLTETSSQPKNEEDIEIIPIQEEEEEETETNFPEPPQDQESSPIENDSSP
human CD20 on the surface of lymphoma cell lines (Ramos or Daudi) (human), sequence (P11836 whole entry): as above
human CD40 antigen on the surface of B cells in human PBMC (human), sequence (P25942 20-277): as the sequence (P25942 20-277) above
human CD40 on the surface of B cells within PBMC from normal human subjects (human), sequence (P25942 20-277): as above
human CD40 antigen expressed on the surface of cells (human), sequence (P25942 20-277): as above

For the substance “CD40 ligand expressed on formaldehyde-fixed CHO cells (from UniProt P29965 1-261)”, in assay [1], the Average SI of PBMC; PBMC + CHO-CD40L, index (1) came out at 11.9; the Average Stimulation index; PBMC + CHO-CD40L, S. index (1) came to 22; the PBMC + CHO-CD40L, CPM; Immoblize-004 turned out to be 11700 CPM; the PBMC + CHO-CD40L, CPM; PBMC-012 is 6810 CPM. For the same substance, in assay [1], the PBMC + CHO-CD40L, CPM; PBMC-025 Donor#1 was 42300 CPM; the PBMC + CHO-CD40L, CPM; PBMC-025 Donor#2 was determined as 15000 CPM; the PBMC + CHO-CD40L, CPM; PBMC-026 Donor#1 was determined as 18300 CPM; the PBMC + CHO-CD40L, CPM; PBMC-026 Donor#2 was 18100 CPM. In assay [1], the PBMC + CHO-CD40L, CPM; PBMC-027 Donor#1 turned out to be 13000 CPM; the PBMC + CHO-CD40L, CPM; PBMC-027 Donor#2 worked out at 11900 CPM; the PBMC + CHO-CD40L, CPM; PBMC-028 Donor#1 came to 22500 CPM; the PBMC + CHO-CD40L, CPM; PBMC-028 Donor#2 came to 54900 CPM. Besides, in assay [1], the PBMC + CHO-CD40L, CPM; PBMC-029 Donor#1 was found to be 10100 CPM; the PBMC + CHO-CD40L, CPM; PBMC-029 Donor#2 was determined as 23100 CPM; the PBMC + CHO-CD40L, CPM; PBMC-030 Donor#1 was 57200 CPM; the PBMC + CHO-CD40L, CPM; PBMC-030 Donor#2 worked out at 53900 CPM. Also, in assay [1], the PBMC + CHO-CD40L, CPM; PBMC-032 Donor#1 worked out at 15300 CPM; the PBMC + CHO-CD40L, S. index (1); Immoblize-004 stood at 13.7; the PBMC + CHO-CD40L, S. index (1); PBMC-012 was 30.3; the PBMC + CHO-CD40L, index (1); PBMC-025 Donor#1 was determined as 10.4. Moreover, in assay [1], the PBMC + CHO-CD40L, index (1); PBMC-025 Donor#2 was 6.63; the PBMC + CHO-CD40L, index (1); PBMC-026 Donor#1 is 8.78; the PBMC + CHO-CD40L, index (1); PBMC-026 Donor#2 stood at 26.7; the PBMC + CHO-CD40L, index (1); PBMC-027 Donor#1 was 4.75. In addition, in assay [1], the PBMC + CHO-CD40L, index (1); PBMC-027 Donor#2 worked out at 8.89; the PBMC + CHO-CD40L, index (1); PBMC-028 Donor#1 was 5.26; the PBMC + CHO-CD40L, index (1); PBMC-028 Donor#2 amounted to 25.6; the PBMC + CHO-CD40L, index (1); PBMC-029 Donor#1 turned out to be 16.5. In assay [1], the PBMC + CHO-CD40L, index (1); PBMC-029 Donor#2 was 2.99; the PBMC + CHO-CD40L, index (1); PBMC-030 Donor#1 amounted to 13.7; the PBMC + CHO-CD40L, index (1); PBMC-030 Donor#2 is 16.2; the PBMC + CHO-CD40L, index (1); PBMC-032 Donor#1 came out at 8.45. Besides, the average stimulation index (SI), proliferation of total PBMC in assay [2] turned out to be 7.41. In addition, in assay [3], the Average SI of PBMC; PBMC + CHO-CD40L, index (1) came to 5.09; the PBMC proliferation (3H-thymidine), CPM of PBMC + CHO-CD40L; PBMC-010 was 5280 CPM; the PBMC proliferation (3H-thymidine), CPM of PBMC + CHO-CD40L; PBMC-011 Donor#1 came to 8250 CPM; the PBMC proliferation (3H-thymidine), CPM of PBMC + CHO-CD40L; PBMC-011 Donor#2 came to 11600 CPM. Also, in assay [3], the PBMC proliferation (3H-thymidine), CPM of PBMC + CHO-CD40L; PBMC-011 Donor#3 was found to be 7960 CPM; the PBMC proliferation (3H-thymidine), CPM of PBMC + CHO-CD40L; PBMC-011 Donor#4 was determined as 14300 CPM; the PBMC proliferation (3H-thymidine), CPM of PBMC + CHO-CD40L; PBMC-014 was 8790 CPM; the PBMC proliferation (3H-thymidine), CPM of PBMC + CHO-CD40L; PBMC-015 Donor#1 came to 12900 CPM. Further, in assay [3], the PBMC proliferation (3H-thymidine), CPM of PBMC + CHO-CD40L; PBMC-015 Donor#2 turned out to be 19100 CPM; the PBMC proliferation (3H-thymidine), CPM of PBMC + CHO-CD40L; PBMC-015 Donor#3 is 19800 CPM; the PBMC proliferation (3H-thymidine), CPM of PBMC + CHO-CD40L; PBMC-016 was determined as 15800 CPM; the index (1) = (PBMC + CHO-CD40L)/PBMC; PBMC-010 came out at 3.73. In assay [3], the index (1) = (PBMC + CHO-CD40L)/PBMC; PBMC-011 Donor#1 came to 3.86, the index (1) = (PBMC + CHO-CD40L)/PBMC; PBMC-011 Donor#2 is 4.87, the index (1) = (PBMC + CHO-CD40L)/PBMC; PBMC-011 Donor#3 was 2.46 and the index (1) = (PBMC + CHO-CD40L)/PBMC; PBMC-011 Donor#4 was determined as 3.41. In addition, in assay [3], the index (1) = (PBMC + CHO-CD40L)/PBMC; PBMC-014 worked out at 3.74, the index (1) = (PBMC + CHO-CD40L)/PBMC; PBMC-015 Donor#1 worked out at 3.94, the index (1) = (PBMC + CHO-CD40L)/PBMC; PBMC-015 Donor#2 was 3.14 and the index (1) = (PBMC + CHO-CD40L)/PBMC; PBMC-015 Donor#3 came to 8. In addition, the index (1) = (PBMC + CHO-CD40L)/PBMC; PBMC-016 in assay [3] amounted to 13.8.
For the substance “CD40 ligand on formaldehyde-fixed CHO transfectant cells (from UniProt P29965 1-261)”, in assay [4], the Average Stimulation Index (SI), B cells + CHO-CD40L is 145; the S. index (1) = CPM (B cells + CHO-CD40L)/CPM (B cells alone); B cell-004 Donor 1 came to 7.49; the S. index (1) = CPM (B cells + CHO-CD40L)/CPM (B cells alone); B cell-004 Donor 2 was found to be 336; the S. index (1) = CPM (B cells + CHO-CD40L)/CPM (B cells alone); B cell-005 Donor 3 was 92.
As for “rituximab (Rituxan; IDEC-C2B8) (antibody)”, in assay [5], the % lysis (Ramos or Daudi; ADCC-012 Calcien AM, huNK E:T 10; 1 ug/ml) stood at 66%; the % lysis - % lysis IgG1 (Ramos or Daudi; ADCC-006 Alarmor Blue, huNK E:T 2; 0.01 ug/ml) came to 33%; the % lysis - % lysis IgG1 (Ramos or Daudi; ADCC-013 51Cr, PBMC E:T 100; 0.001 ug/ml) stood at 0.35%. In assay [6], the % lysis (ADCC-012 Calcein AM, huNK E:T 10, 1 ug/ml) was 66%; the % lysis - % lysis IgG1 (ADCC-006 Alarmor Blue, huNK E:T 2, 0.01 ug/ml) worked out at 33%; the % lysis - % lysis IgG1 (ADCC-013 51Cr, PBMC E:T 100, 0.001 ug/ml) is 0.35%.
